Results on one molecule are retold here after PMC1185577 (Nucleic Acids Research, 2005).

The assay has as its target T1, glutathione S-transferase (GST)-L5 (S. cerevisiae, UniProt P26321 1-297).
T1 sequence (looked up): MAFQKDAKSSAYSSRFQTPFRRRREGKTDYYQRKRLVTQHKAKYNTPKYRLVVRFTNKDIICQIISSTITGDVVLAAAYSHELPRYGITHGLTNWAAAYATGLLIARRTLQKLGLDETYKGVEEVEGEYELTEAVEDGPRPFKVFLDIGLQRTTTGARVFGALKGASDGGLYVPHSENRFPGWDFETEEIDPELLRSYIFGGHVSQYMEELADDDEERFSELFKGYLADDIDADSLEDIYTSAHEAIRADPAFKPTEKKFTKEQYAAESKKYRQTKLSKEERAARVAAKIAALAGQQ
The assay is described as follows: pull-down.

B1: maltose-binding protein (MBP)-Rrs1p (natural protein, S. cerevisiae, UniProt Q08746 1-203, looked up)
chain: MSAEDYKNLPVTVEKPIPVVYDLGNLAAFDSNVLDKNDLDSSNARREEKIKSLTRDNVQLLINQLLSLPMKTTTESVGGTGGQSSVMTLLQLPDPTTDLPREKPLPKAKAMTKWEKFAAKKGIKPKERAGKMIYDEASGEWVPKWGYKGANKKLDDQWLVEVDDKVKGTDNELIDPRTLNRAERKRLVKKNEKQQRRNMKNAL
As to B1, the binding result was “binds”.
